{"source": "patent US20180265864", "about": "“Genome Engineering Methods Using a Cytosine-Specific CAS9” (Florida State University Research Foundation, Inc., published 2018)", "molecules": {"B1": {"name": "sgRNA 24-nt spacer (template bottom strand; RNA is reverse complement without promoter) ; pUC19 WT target, BamHI-linearized (ssRNA ; dsDNA)", "RNA": "GGUAGGAUGGCAAGAUCCUGGUAUGCUGGGGAGCCUGAAAAGGCUACCUAGCAAGACCCCUUCGUGGGGUCGCAUUCUUCACCCCCUCGCAGCAGCGAGGGGGUUC", "DNA 1": "GGTAGGATGGCAAGATCCTGGTATACACC", "DNA 2": "GGTGTATACCAGGATCTTGCCATCCTACC"}}, "key": {"[1]": {"target": "T1, AceCas9 (in E. coli) (Acidothermus cellulolyticus 11B) (UniProt A0LWB3)", "T1 sequence": "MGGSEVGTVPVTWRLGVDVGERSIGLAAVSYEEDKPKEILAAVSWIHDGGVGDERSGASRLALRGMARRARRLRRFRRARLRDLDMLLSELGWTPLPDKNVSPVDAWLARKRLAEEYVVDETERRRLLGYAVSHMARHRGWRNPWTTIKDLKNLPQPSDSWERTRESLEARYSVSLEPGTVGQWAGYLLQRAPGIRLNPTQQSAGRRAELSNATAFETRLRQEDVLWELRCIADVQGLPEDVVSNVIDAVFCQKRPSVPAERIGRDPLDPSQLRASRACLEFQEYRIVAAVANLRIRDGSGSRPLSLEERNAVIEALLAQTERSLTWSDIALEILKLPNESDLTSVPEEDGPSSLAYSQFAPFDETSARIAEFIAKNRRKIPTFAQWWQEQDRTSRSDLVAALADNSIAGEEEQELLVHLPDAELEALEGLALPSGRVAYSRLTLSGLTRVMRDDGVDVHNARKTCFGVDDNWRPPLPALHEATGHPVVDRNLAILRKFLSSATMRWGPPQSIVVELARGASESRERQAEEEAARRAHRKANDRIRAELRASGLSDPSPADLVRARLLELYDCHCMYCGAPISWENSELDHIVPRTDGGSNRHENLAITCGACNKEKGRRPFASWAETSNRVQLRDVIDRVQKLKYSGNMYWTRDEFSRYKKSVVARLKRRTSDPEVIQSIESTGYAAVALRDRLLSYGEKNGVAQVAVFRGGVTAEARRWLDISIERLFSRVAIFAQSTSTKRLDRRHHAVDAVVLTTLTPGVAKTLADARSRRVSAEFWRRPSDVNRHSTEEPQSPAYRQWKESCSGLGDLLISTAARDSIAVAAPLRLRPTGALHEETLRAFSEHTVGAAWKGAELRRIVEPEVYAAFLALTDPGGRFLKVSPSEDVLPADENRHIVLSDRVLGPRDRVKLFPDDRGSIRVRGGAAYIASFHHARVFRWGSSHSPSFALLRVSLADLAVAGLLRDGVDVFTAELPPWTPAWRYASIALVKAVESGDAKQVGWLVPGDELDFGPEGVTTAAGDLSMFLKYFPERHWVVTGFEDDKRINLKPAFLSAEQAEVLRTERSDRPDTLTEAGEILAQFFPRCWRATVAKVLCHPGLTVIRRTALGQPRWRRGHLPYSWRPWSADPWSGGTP", "assay": "cell_activity"}, "AceCas9 (Type II-C Cas9)": {"target": "T2, AceCas9 (Type II-C Cas9) (Acidothermus cellulolyticus 11B, UniProt A0LWB3 A0LWB3:1-1138)", "T2 sequence": "T1 sequence", "assay": "cleavage_in_vitro; 50 C", "conditions": "tags: C-terminal His6 (pET28b, E. coli Rosetta DE3); linear plasmid"}}, "data": [{"molecule": "sgRNA 26-nt spacer ; ccdB plasmid PAMC(4,5)T", "values": [{"measurement": "activity", "setting": "[1]; [28,29], NNNTT PAM", "value": "< 0.001", "unit": "% survival"}]}, {"molecule": "sgRNA 26-nt spacer ; ccdB plasmid PAMWT", "values": [{"measurement": "activity", "setting": "[1]; E. coli ccdB selection", "value": 13.6, "unit": "% survival"}]}, {"molecule": "sgRNA 22-nt spacer ; ccdB plasmid PAMWT", "values": [{"measurement": "activity", "setting": "[1]; E. coli ccdB selection", "value": "< 0.01", "unit": "% survival"}]}, {"molecule": "B1", "values": [{"measurement": "activity", "setting": "AceCas9 (Type II-C Cas9)", "value": 0.53, "unit": "min⁻¹"}]}]}
